Where a chain is given by its changes, count along the chain named.

Test [1] has as its target T1, human GPC3-His protein (human, UniProt P51654 25-559, limits assumed).
T1 construct: also called human GPC3 protein; not shown: His tag
The test is described as follows: SPR, antibody captured on Protein A chip, human GPC3-His injected, 1:1 Langmuir model.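 Note: flow cell at 25 °C, antigen injected for 240 s at five twofold dilutions starting at 200 nM, dissociation followed up to 600 s, double-referenced sensorgrams.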

For test [2], the target named is T2, monkey GPC3 on HEK293T-monkey GPC3 cells (monkey).
T2 construct: whole, on cells
The test is described as follows: FACS on HEK293T-monkey GPC3 cells.

B1: hAb005LH1L1b (antibody, human IgG1, V domains shown)
VH: EVQLVQSGAEVKKPGASVKVSCKASGYTFTDYEMHWVRQAPGQGLEWMGAIDPETGNTAYIQKFKGRVTMTTDKSTSTAYMELRSLRSDDTAVYYCTRFYSYSHWGQGTTVTVSS
VL: DIVMTQTPLSLPVTPGEPASISCRSSQSLVHSNRNTYLHWYLQKPGQSPQLLIYKVSNRFSGVPDRFSGSGSGTDFTLKISRVEAEDVGVYYCSQNTHVPPTFGGGTKVEIK
notes: Humanized F3.54.12
For the molecule B1, in test [1], the Kd turned out to be 8.49 nM, the koff turned out to be 0.00231 s⁻¹ and the kon was determined as 272000 M⁻¹ s⁻¹. Moreover, in test [2], the EC50 worked out at 2.62 nM and the “Max MFI” value came out at 24300 MFI.

B2: hAb005LH2L1b (antibody, human IgG1, V domains shown)
VH: B1 VH with M70L
VL: B1 VL
notes: Humanized F3.54.12
In test [1], B2 came in with a Kd of 7.85 nM, a koff of 0.00213 s⁻¹ and an association rate constant (kon) of 271000 M⁻¹ s⁻¹. Moreover, in test [2], the EC50 was found to be 2.42 nM and the “Max MFI” value is 22800 MFI.

B3: hAb001H1aL1b (antibody, human IgG1, V domains shown)
VH: EVQLVESGGGLVQPGGSLRLSCAASGFSFNTNAMNWVRQAPGKGLEWVGRIRSKSNNYATYYADSVKGRFTISRDDSKNSLYLQMNSLKTEDTAVYYCVRDGYYVLFAYWGQGTLVTVSS
VL: DIVMTQTPLSLPVTPGEPASISCRFSQSIVNSNANTYLEWFLQKPGQSPQLLIYKVSNRFSGVPDRFSGSGSGTDFTLKISRVEAEDVGVYYCFQGSHVPFTFGQGTKLEIK
notes: Humanized F2.169.2
As for B3, in test [1], the affinity, expressed as Kd, was 109 nM; the koff stood at 0.0167 s⁻¹; the kon was determined as 153000 M⁻¹ s⁻¹. Moreover, in test [2], the EC50 is 0.96 nM and the “Max MFI” value amounted to 32600 MFI.

B4: hAb003LH2L1b (antibody, human IgG1, V domains shown)
VH: EVQLVQSGAEVKKPGSSVKVSCKASGYRFTDYEMHWVRQAPGQGLEWMGTIDPETGNTAYTQKFMDRVTITADKSTSTAYMELSSLRSEDTAVYYCTRGYSFTYWGQGTLVTVSS
VL: B3 VL with F25S, S28N, N31H, A34R, E39Q, F41Y, Y54F
notes: Humanized F2.154.1
For the molecule B4, in test [1], the Kd stood at 2.08 nM, the koff amounted to 0.000501 s⁻¹ and the kon amounted to 240000 M⁻¹ s⁻¹. Also, in test [2], the EC50 came to 0.793 nM and the “Max MFI” value is 31100 MFI.

B5: hAb006LH1L1b (antibody, human IgG1, V domains shown)
VH: B4 VH with R28T, T30S, M34I, T50A, E54K, T61N, D66G, G99Y, Y100F, T103A
VL: B3 VL with F25S, S28T, I29F, N31H, E39Q, F41Y, F101Y
notes: Humanized F3.38.7
B5: in test [1], the Kd came out at 7.41 nM, the off-rate (koff) worked out at 0.00125 s⁻¹ and the kon came out at 168000 M⁻¹ s⁻¹. In test [2], the EC50 turned out to be 1.73 nM and the “Max MFI” value was determined as 31800 MFI.

B6: hAb003LH1L1b (antibody, human IgG1, V domains shown)
VH: B4 VH with R28T, T30S
VL: B3 VL with F25S, S28N, N31H, A34R, E39Q, F41Y, Y54F
notes: Humanized F2.154.1
For B6, in test [1], the Kd is 1.68 nM, the koff came to 0.000415 s⁻¹ and the kon came out at 246000 M⁻¹ s⁻¹. In test [2], the EC50 was found to be 1.46 nM and the “Max MFI” value stood at 28400 MFI.

B7: hAb003LH1L1 (antibody, human IgG1, V domains shown)
VH: B4 VH with R28T, T30S
VL: B3 VL with F25S, S28N, N31H, A34G, E39Q, F41Y, Y54F
notes: Humanized F2.154.1
For B7, in test [1], the Kd was 1.93 nM, the koff was 0.000453 s⁻¹ and the kon worked out at 234000 M⁻¹ s⁻¹. Further, in test [2], the 50% effective concentration (EC50) worked out at 1.56 nM and the “Max MFI” value came to 28200 MFI.

B8: hAb006LH2L1 (antibody, human IgG1, V domains shown)
VH: B4 VH with R28T, M34I, T50A, E54K, T61N, D66G, G99Y, Y100F, T103A
VL: B3 VL with F25S, S28T, I29F, N31H, A34G, E39Q, F41Y, F101Y
notes: Humanized F3.38.7
On to B8, for which, in test [1], the affinity, expressed as Kd, was 4.3 nM; the dissociation rate constant (koff) worked out at 0.000678 s⁻¹; the kon worked out at 158000 M⁻¹ s⁻¹. In addition, in test [2], the midpoint of the response, the EC50, lay at 1.65 nM and the “Max MFI” value came to 32800 MFI.

B9: hAb001H2L1b (antibody, human IgG1, V domains shown)
VH: B3 VH with G68D, N79S
VL: B3 VL
notes: Humanized F2.169.2
As for B9, in test [1], binding was characterised by a dissociation constant (Kd) of 19.2 nM, the koff was 0.0101 s⁻¹ and the kon stood at 526000 M⁻¹ s⁻¹. Further, in test [2], the EC50 was determined as 1.41 nM and the “Max MFI” value turned out to be 33100 MFI.

What is called Kd is the concentration at which binding is half-saturated. Usually koff stands for the rate constant with which the complex falls apart. Usually kon stands for a measure of how fast the partners come together. For orientation: EC50 means the midpoint of the concentration-response curve.
